Assay results: PMC8998336 (2022)

Legend:
[1] = biological target: T1, human cationic trypsin (TRY1) p.S200A (human, UniProt P07477 24-247, p.S200A); assay: SPR
[2] = biological target: T1, human cationic trypsin (TRY1) p.S200A; assay: SPR; remark: listed apart in the source
[3] = biological target: human cationic trypsin (TRY1) WT (human, UniProt P07477 24-247); assay: trypsin activity assay

Kd [1] | koff [2] | Ki [3] | Binder
0.863 nM | 0.0002 s⁻¹ | 0.045 nM | serine protease inhibitor Kazal-type 1 (SPINK1) p.N34S (natural protein) DSLGREAKCYSELNGCTKIYDPVCGTDGNTYPNECVLCFENRKRQTSILIQKSGPC
0.8 nM | 0.0002 s⁻¹ | 0.028 nM | serine protease inhibitor Kazal-type 1 (SPINK1) WT (natural protein) DSLGREAKCYNELNGCTKIYDPVCGTDGNTYPNECVLCFENRKRQTSILIQKSGPC
